Columns and labels:
[1] = biological target: T1, mbr-1 (T01C1.2) (Caenorhabditis elegans) (UniProt G5EGQ5)
T1 sequence: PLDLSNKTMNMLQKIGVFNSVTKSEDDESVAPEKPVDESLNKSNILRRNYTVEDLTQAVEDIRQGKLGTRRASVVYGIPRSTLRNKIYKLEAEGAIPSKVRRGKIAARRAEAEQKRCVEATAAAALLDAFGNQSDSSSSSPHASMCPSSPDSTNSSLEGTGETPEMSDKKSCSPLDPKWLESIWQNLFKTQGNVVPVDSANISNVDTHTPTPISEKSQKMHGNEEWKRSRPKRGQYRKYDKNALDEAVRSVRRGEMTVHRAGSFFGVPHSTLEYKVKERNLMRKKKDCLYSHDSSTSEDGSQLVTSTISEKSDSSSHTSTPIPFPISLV

[2] = biological target: T2, skn-1 (T19E7.2) (Caenorhabditis elegans) (UniProt P34707)
T2 sequence: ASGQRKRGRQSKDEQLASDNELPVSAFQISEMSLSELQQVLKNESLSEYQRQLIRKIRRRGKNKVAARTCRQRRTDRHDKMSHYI

[3] = biological target: T3, odr-7 (T18D3.2) (Caenorhabditis elegans) (UniProt P41933)
T3 sequence: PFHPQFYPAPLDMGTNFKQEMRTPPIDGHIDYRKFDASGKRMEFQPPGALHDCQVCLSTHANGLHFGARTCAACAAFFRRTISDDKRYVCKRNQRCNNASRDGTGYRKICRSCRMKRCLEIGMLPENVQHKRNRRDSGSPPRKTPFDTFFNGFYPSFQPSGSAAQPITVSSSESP

[4] = biological target: T4, nhr-232 (Y22F5A.1) (Caenorhabditis elegans) (UniProt A0A486WVR6)
T4 sequence: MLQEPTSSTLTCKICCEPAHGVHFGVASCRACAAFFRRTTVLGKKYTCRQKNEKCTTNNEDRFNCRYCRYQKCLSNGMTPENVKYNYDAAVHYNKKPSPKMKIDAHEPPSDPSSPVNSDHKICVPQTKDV

[5] = biological target: T5, nhr-142 (F44E7.8) (Caenorhabditis elegans) (UniProt J7SF93)
T5 sequence: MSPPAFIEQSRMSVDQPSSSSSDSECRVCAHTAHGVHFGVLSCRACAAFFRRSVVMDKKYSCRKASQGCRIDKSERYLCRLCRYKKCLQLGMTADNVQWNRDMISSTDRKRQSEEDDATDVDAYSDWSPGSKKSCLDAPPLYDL

[6] = biological target: T6, nhr-42 (C33G8.6) (Caenorhabditis elegans) (UniProt O76828)
T6 sequence: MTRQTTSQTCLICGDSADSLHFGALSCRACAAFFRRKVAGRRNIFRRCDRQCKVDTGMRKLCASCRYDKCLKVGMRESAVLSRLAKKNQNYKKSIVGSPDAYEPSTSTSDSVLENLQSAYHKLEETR

[7] = biological target: T7, nhr-70 (Y51A2D.17) (Caenorhabditis elegans) (UniProt G5EEL3)
T7 sequence: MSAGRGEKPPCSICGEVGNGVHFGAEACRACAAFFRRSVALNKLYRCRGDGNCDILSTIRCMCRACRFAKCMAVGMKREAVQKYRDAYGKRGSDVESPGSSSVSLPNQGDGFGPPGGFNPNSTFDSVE

[8] = system: T8, nhr-216 (T09D3.4) (Caenorhabditis elegans)
T8 sequence: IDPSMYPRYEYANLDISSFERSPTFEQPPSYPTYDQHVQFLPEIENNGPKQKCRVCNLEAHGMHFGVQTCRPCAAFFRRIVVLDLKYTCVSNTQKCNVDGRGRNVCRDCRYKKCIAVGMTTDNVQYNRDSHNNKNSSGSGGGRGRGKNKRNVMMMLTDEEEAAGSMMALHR

GGGGCCAA (double strand) [8-mer GGGGCCAA]
binding signal (PBM E-score (-0.5 to 0.5)) [1]: 0.488

AGTCATCA (double strand) [8-mer AGTCATCA]
binding signal (PBM E-score (-0.5 to 0.5)) [2]: 0.491

AAATTGTA (double strand) [8-mer AAATTGTA]
binding signal (PBM E-score (-0.5 to 0.5)) [3]: 0.456

GACACAAA (double strand) [8-mer GACACAAA]
binding signal (PBM E-score (-0.5 to 0.5)) [4]: 0.475

CTACAATC (double strand) [8-mer CTACAATC]
binding signal (PBM E-score (-0.5 to 0.5)) [3]: 0.466

ATTGTAGC (double strand) [8-mer ATTGTAGC]
binding signal (PBM E-score (-0.5 to 0.5)) [3]: 0.487

AGCCCCCC (double strand) [8-mer AGCCCCCC]
binding signal (PBM E-score (-0.5 to 0.5)) [1]: 0.491

GGCCCCCC (double strand) [8-mer GGCCCCCC]
binding signal (PBM E-score (-0.5 to 0.5)) [1]: 0.498

TACTACAA (double strand) [8-mer TACTACAA]
binding signal (PBM E-score (-0.5 to 0.5)) [3]: 0.474

AAGGGGCC (double strand) [8-mer AAGGGGCC]
binding signal (PBM E-score (-0.5 to 0.5)) [1]: 0.487

AAGTCACA (double strand) [8-mer AAGTCACA]
binding signal (PBM E-score (-0.5 to 0.5)) [5]: 0.496 | binding signal (PBM E-score (-0.5 to 0.5)) [4]: 0.498 | binding signal (PBM E-score (-0.5 to 0.5)) [6]: 0.494

GGTCACAA (double strand) [8-mer GGTCACAA]
binding signal (PBM E-score (-0.5 to 0.5)) [5]: 0.495 | binding signal (PBM E-score (-0.5 to 0.5)) [4]: 0.485

AATTGTAC (double strand) [8-mer AATTGTAC]
binding signal (PBM E-score (-0.5 to 0.5)) [3]: 0.46

AGGTCACA (double strand) [8-mer AGGTCACA]
binding signal (PBM E-score (-0.5 to 0.5)) [5]: 0.486 | binding signal (PBM E-score (-0.5 to 0.5)) [4]: 0.455 | binding signal (PBM E-score (-0.5 to 0.5)) [6]: 0.486

GTCACAAA (double strand) [8-mer GTCACAAA]
binding signal (PBM E-score (-0.5 to 0.5)) [5]: 0.498 | binding signal (PBM E-score (-0.5 to 0.5)) [4]: 0.497 | binding signal (PBM E-score (-0.5 to 0.5)) [6]: 0.48

GCCCCCCA (double strand) [8-mer GCCCCCCA]
binding signal (PBM E-score (-0.5 to 0.5)) [1]: 0.487

GCTACAAC (double strand) [8-mer GCTACAAC]
binding signal (PBM E-score (-0.5 to 0.5)) [7]: 0.483

ACACAAAA (double strand) [8-mer ACACAAAA]
binding signal (PBM E-score (-0.5 to 0.5)) [4]: 0.465

AGTCACAC (double strand) [8-mer AGTCACAC]
binding signal (PBM E-score (-0.5 to 0.5)) [5]: 0.49 | binding signal (PBM E-score (-0.5 to 0.5)) [4]: 0.48 | binding signal (PBM E-score (-0.5 to 0.5)) [6]: 0.489

TGGCTACA (double strand) [8-mer TGGCTACA]
binding signal (PBM E-score (-0.5 to 0.5)) [7]: 0.48

GGCTACAC (double strand) [8-mer GGCTACAC]
binding signal (PBM E-score (-0.5 to 0.5)) [7]: 0.487

CGACTACA (double strand) [8-mer CGACTACA]
binding signal (PBM E-score (-0.5 to 0.5)) [7]: 0.487

GTCACACA (double strand) [8-mer GTCACACA]
binding signal (PBM E-score (-0.5 to 0.5)) [4]: 0.46

AGTCATAA (double strand) [8-mer AGTCATAA]
binding signal (PBM E-score (-0.5 to 0.5)) [5]: 0.491 | binding signal (PBM E-score (-0.5 to 0.5)) [4]: 0.48

ATGGCCCC (double strand) [8-mer ATGGCCCC]
binding signal (PBM E-score (-0.5 to 0.5)) [1]: 0.487

GTCAGAAC (double strand) [8-mer GTCAGAAC]
binding signal (PBM E-score (-0.5 to 0.5)) [8]: 0.498

AGGCTACA (double strand) [8-mer AGGCTACA]
binding signal (PBM E-score (-0.5 to 0.5)) [7]: 0.488

TGACTACA (double strand) [8-mer TGACTACA]
binding signal (PBM E-score (-0.5 to 0.5)) [7]: 0.491

AGTCACAG (double strand) [8-mer AGTCACAG]
binding signal (PBM E-score (-0.5 to 0.5)) [5]: 0.492 | binding signal (PBM E-score (-0.5 to 0.5)) [4]: 0.465

AGTCAGAA (double strand) [8-mer AGTCAGAA]
binding signal (PBM E-score (-0.5 to 0.5)) [8]: 0.498

ATTTGTAG (double strand) [8-mer ATTTGTAG]
binding signal (PBM E-score (-0.5 to 0.5)) [3]: 0.479

TACAAATA (double strand) [8-mer TACAAATA]
binding signal (PBM E-score (-0.5 to 0.5)) [3]: 0.461
